Data published in US20210206861A1 (SUNSHINE GUOJIAN PHARMACEUTICAL SHANGHAI, published 2021).

Experiments:
human IL-4R = human IL-4R (human, UniProt P24394 26-825); experiment: cell-based or functional assay
IL-4R-ECD-FLAG [1] = biological target: T1, IL-4R-ECD-FLAG (human, UniProt P24394 26-232); experiment: ELISA on coated IL-4R-ECD-FLAG (100 ng/ml), HRP goat anti-human secondary
T1 construct: Expressed in HEK293, purified on an anti-FLAG column; also called IL-4R antigen; human IL-4R; not shown: FLAG tag added to the end of the IL-4R-ECD coding region

IL-4R-ECD-FLAG [2] = biological target: T1, IL-4R-ECD-FLAG; experiment: SPR, Biacore T200; antibody captured on Protein A/G CM5 chip, IL-4R-ECD-FLAG injected
Procedure: Next cycle was repeated after eluting the chip with 6M guanidine hydrochloride regeneration buffer. The data was analyzed using Biacore T200 Evaluation Software.

Biotinated IL-4R-ECD-hFc = biological target: T2, Biotinated IL-4R-ECD-hFc (human, UniProt P24394 26-232, biotinylated with Biotin N-hydroxysuccinimide ester (sites not given)); experiment: blocking ELISA: coated IL-4-hFc (2000 ng/ml), biotinylated IL-4R-ECD-hFc (100 ng/ml) with antibody in dilution series, Streptavidin-HRP
T2 construct: also called biotinylated IL-4R-ECD-hFc; not shown: hFc (IgG1) tag
Procedure: The plate was washed with phosphate buffer containing 0.05% Tween-20 (PBST) and blocked by adding PBST containing 1% bovine serum albumin to each well. Then the plate was washed with PBST. […] The plate was washed with PBST. Streptavidin-HRP which was diluted with PBST containing 1% BSA at a dilution ratio of 1:1000 was added at 100 μl/well and incubated at 37° C. for 30 min. Chromogenic solution (TMB substrate solution) was added at 100 μl/well, and incubated at room temperature for 1˜5 min; then 50 μl/well of the stop solution was added to stop the color reaction. OD450 values were read with a microplate reader and GraphPad Prism6 was used to analyze data, prepare graphs, and calculate IC50.

| Binder | IC50 of inhibition of IL-4-induced TF-1 cell proliferation (human IL-4R) [µg/mL] | IC50 of inhibition of IL-13-induced TF-1 cell proliferation (human IL-4R) [µg/mL] | EC50 (IL-4R-ECD-FLAG [1]) [µg/mL] | IC50 of inhibition of IL-4-induced CD23 expression by PBMC, first experiment (human IL-4R) [µg/mL] | IC50 of inhibition of IL-4-induced CD23 expression by PBMC, second experiment (human IL-4R) [µg/mL] | IC50 of inhibition of IL-4-induced IgE secretion by PBMC, first experiment (human IL-4R) [µg/mL] | IC50 of inhibition of IL-4-induced IgE secretion by PBMC, second experiment (human IL-4R) [µg/mL] | IC50 of inhibition of IL-4-induced TF-1 cell proliferation, first experiment (human IL-4R) [µg/mL] | IC50 of inhibition of IL-4-induced TF-1 cell proliferation, second experiment (human IL-4R) [µg/mL] | IC50 of inhibition of IL-4-induced TF-1 cell proliferation, third experiment (human IL-4R) [µg/mL] | Kd (IL-4R-ECD-FLAG [2]) [pM] | koff (IL-4R-ECD-FLAG [2]) [s⁻¹] | kon (IL-4R-ECD-FLAG [2]) [M⁻¹ s⁻¹] | IC50 (Biotinated IL-4R-ECD-hFc) [µg/mL] |
| --- | --- | --- | --- | --- | --- | --- | --- | --- | --- | --- | --- | --- | --- | --- |
| 4-2-Chimeric-IgG1 (antibody, V domains shown, also called chimeric antibody 4-2-Chimeric-IgG1) VH: QVQLQQSGPELVKPGASVKISCTASGSTLTDDYINWVKQRPGRGLEWVGWIFPGNGNSYYNEKFKDKATLIVDKSSSTAYMLLSSLTSEDSAVYFCARGLVRYRALFDYWGQGTTLTVSS VL: QIVLSQSPAILSASPGEKVTMTCRASSSINYMHWYQQKPGSSPKPWIYAASNLASGVPARFSGSGSGTSFSLTISRVEAEDAATYYCQQWSSYPITFGSGTKLEIK | 0.225 | 0.0816 | 0.0118 | – | – | – | – | – | – | – | – | – | – | – |
| 4-2-Humanized-IgG1 (antibody, expressed in HEK293E; also called humanized antibody 4-2-Humanized-IgG1) heavy: not shown light: DIQMTQSPSSLSASVGDRVTITCRASSSINYMHWYQQKPGKAPKPWIYAASNLASGVPSRFSGSGSGTDFTLTISSLQPEDFATYYCQQWSSYPITFGQGTKVEIKRTVAAPSVFIFPPSDEQLKSGTASVVCLLNNFYPREAKVQWKVDNALQSGNSQESVTEQDSKDSTYSLSSTLTLSKADYEKHKVYACEVTHQGLSSPVTKSFNRGEC | – | 0.0343 | 0.0124 | 0.0294 | 0.00356 | 0.448 | 0.0613 | 0.561 | 0.427 | 0.52 | 717 | 0.000133 | 186000 | 0.138 |
| 4-2-Humanized-IgG4 (antibody, also called 4-2-Hu-IgG4) heavy: not shown light: DIQMTQSPSSLSASVGDRVTITCRASSSINYMHWYQQKPGKAPKPWIYAASNLASGVPSRFSGSGSGTDFTLTISSLQPEDFATYYCQQWSSYPITFGQGTKVEIKRTVAAPSVFIFPPSDEQLKSGTASVVCLLNNFYPREAKVQWKVDNALQSGNSQESVTEQDSKDSTYSLSSTLTLSKADYEKHKVYACEVTHQGLSSPVTKSFNRGEC | 2.78 | – | – | 0.232 | 0.034 | 1.95 | 0.413 | 1.29 | 1.11 | 1.15 | 692 | 0.00013 | 188000 | 0.14 |
| 4-2-Humanized-IgG1-SELF (antibody, also called SELF mutant of anti-human IL-4R humanized antibody) heavy: not shown light: DIQMTQSPSSLSASVGDRVTITCRASSSINYMHWYQQKPGKAPKPWIYAASNLASGVPSRFSGSGSGTDFTLTISSLQPEDFATYYCQQWSSYPITFGQGTKVEIKRTVAAPSVFIFPPSDEQLKSGTASVVCLLNNFYPREAKVQWKVDNALQSGNSQESVTEQDSKDSTYSLSSTLTLSKADYEKHKVYACEVTHQGLSSPVTKSFNRGEC | 0.292 | – | – | 0.0074 | 0.00049 | 0.0508 | 0.0266 | – | – | – | – | – | – | 0.144 |
| Dupilumab (antibody, V domains shown) VH: EVQLVESGGGLEQPGGSLRLSCAGSGFTFRDYAMTWVRQAPGKGLEWVSSISGSGGNTYYADSVKGRFTISRDNSKNTLYLQMNSLRAEDTAVYYCAKDRLSITIRPRYYGLDVWGQGTTVTVSS VL: DIVMTQSPLSLPVTPGEPASISCRSSQSLLYSIGYNYLDWYLQKSGQSPQLLIYLGSNRASGVPDRFSGSGSGTDFTLKISRVEAEDVGFYYCMQALQTPYTFGQGTKLEIKR | – | 0.0738 | – | 0.0909 | 0.0206 | 0.996 | 0.189 | 0.842 | 0.616 | 0.687 | – | – | – | – |
